Test results as given in patent US5876948 (The Children's Medical Center Corporation, dated 1999).
Bridge positions count the residues as written; N and C are the ends. Square brackets hold non-standard residues; d marks the D form. Ends that are not written are not given here. NMeF = CN[C@@H](Cc1ccccc1)C(=O)O; pGlu = O=C1CC[C@@H](C(=O)O)N1; Sar = CNCC(=O)O

What follows are binders tested against β-amyloid peptide β1-40 (polypeptide corresponding to the first 40 amino acids of β-amyloid) (assay: cell-based or functional assay).

| Binder | Therapeutic Efficacy (%) |
| --- | --- |
| RPKPQQF [Substance P (1-7)] | 82 |
| QFFGLM [Sub P (6-11)] | 65 |
| RPKPQQFFGLX (nor-leucine at position 11) [[Nle^11]-Sub P] | 77 |
| [pGlu]QF[NMeF][Sar]LM (ends and bridges not checked) [[pGlu^5, Me-Phe^8, Sar^9]-Sub P (5-11)] | 41 |
| RPKPQQFFGLM-OH [Sub P, Free Acid] | 53 |
| RPKPQQFFGLM-OMe [Sub P, Methyl Ester] | 71 |
| RPCPQCFYPLM (disulfide 3-6; ends not checked) [[Cys^3,6, Tyr^8, Pro^9]-Sub P] | 53 |
| FFGLM [Sub P (7-11)] | 41 |
| RPKPQQFFGLM-NH2 [Substance P] | 100 |
